In paper PMC6019534 one finds stoichiometry N data, which are given here for 1 substance.

Broadly, the stoichiometry N is a count of units in the complex or per binding partner.

The assay addresses MbnN from Methylosinus trichosporium OB3b, tagless (C-terminal His6 tag removed by TEV protease) (Methylosinus trichosporium OB3b). As to the kind of experiment: native gel or EMSA. For orientation: Mobility shift assays separate free from complexed probe on a gel.

On to “MbnN from Methylosinus trichosporium OB3b, tagless (C-terminal His6 tag removed by TEV protease) (enzyme)”, for which the stoichiometry N is 2.
